The values that follow come from article PMC3296483 (Biochemical Journal, 2011).

The target in data set [1] is GluA2 ATD (Rattus norvegicus) (UniProt P19491). As to conditions: cited from earlier work.
The data set “crystal structure” concerns the molecule itself. Description: crystal structure.

Sequence of GluA2 ATD (Rattus norvegicus) (P19491 22-398): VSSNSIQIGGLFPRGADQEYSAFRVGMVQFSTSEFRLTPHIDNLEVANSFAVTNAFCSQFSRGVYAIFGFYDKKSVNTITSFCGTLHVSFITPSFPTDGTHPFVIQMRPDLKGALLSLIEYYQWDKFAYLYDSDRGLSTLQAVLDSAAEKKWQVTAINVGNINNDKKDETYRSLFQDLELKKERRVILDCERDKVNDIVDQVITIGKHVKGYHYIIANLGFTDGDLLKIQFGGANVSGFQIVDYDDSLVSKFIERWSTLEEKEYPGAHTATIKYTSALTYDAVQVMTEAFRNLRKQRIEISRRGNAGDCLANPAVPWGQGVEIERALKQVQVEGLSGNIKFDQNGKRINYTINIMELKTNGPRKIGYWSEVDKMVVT

As a reminder, the Kd is the constant that tells how readily two partners part at equilibrium. For GluA1 ATD (from UniProt P19490), in data set [1], the dissociation constant Kd is 0.4 nM.

B1: rat GluA1 amino-terminal domain (P4-A374), tags removed (domain or fragment, UniProt P19490 22-392, looked up)
chain: PNNIQIGGLFPNQQSQEHAAFRFALSQLTEPPKLLPQIDIVNISDSFEMTYRFCSQFSKGVYAIFGFYERRTVNMLTSFCGALHVCFITPSFPVDTSNQFVLQLRPELQEALISIIDHYKWQTFVYIYDADRGLSVLQRVLDTAAEKNWQVTAVNILTTTEEGYRMLFQDLEKKKERLVVVDCESERLNAILGQIVKLEKNGIGYHYILANLGFMDIDLNKFKESGANVTGFQLVNYTDTIPARIMQQWRTSDSRDHTRVDWKRPKYTSALTYDGVKVMAEAFQSLRRQRIDISRRGNAGDCLANPAVPWGQGIDIQRALQQVRFEGLTGNVQFNEKGRRTNYTLHVIEMKHDGIRKIGYWNEDDKFVPAA
B1: in “crystal structure”, the binding result is “binds”.
